Experimental data: PMC6384901, “Cyclic Peptide-Based Sirtuin Substrates” (Molecules, 2019)

B1: human recombinant His6-SIRT3 (Homo sapiens) (protein)
chain: MAFWGWRAAAALRLWGRVVERVEAGGGVGPFQACGCRLVLGGRDDVSAGLRGSHGARGEPLDPARPLQRPPRPEVPRAFRRQPRAAAPSFFFSSIKGGRRSISFSVGASSVVGSGGSSDKGKLSLQDVAELIRARACQRVVVMVGAGISTPSGIPDFRSPGSGLYSNLQQYDLPYPEAIFELPFFFHNPKPFFTLAKELYPGNYKPNVTHYFLRLLHDKGLLLRLYTQNIDGLERVSGIPASKLVEAHGTFASATCTVCQRPFPGEDIRADVMADRVPRCPVCTGVVKPDIVFFGEPLPQRFLLHVVDFPMADLLLILGTSLEVEPFASLTEAVRSSVPRLLINRDLVGPLAWHPRSRDVAQLGDVVHGVESLVELLGWTEEMRDLVQRETGKLDGPDK
notes: His6; purchased Cayman Chemical
B2: human recombinant His6-SIRT2 (Homo sapiens) (protein)
chain: MAEPDPSHPLETQAGKVQEAQDSDSDSEGGAAGGEADMDFLRNLFSQTLSLGSQKERLLDELTLEGVARYMQSERCRRVICLVGAGISTSAGIPDFRSPSTGLYDNLEKYHLPYPEAIFEISYFKKHPEPFFALAKELYPGQFKPTICHYFMRLLKDKGLLLRCYTQNIDTLERIAGLEQEDLVEAHGTFYTSHCVSASCRHEYPLSWMKEKIFSEVTPKCEDCQSLVKPDIVFFGESLPARFFSCMQSDFLKVDLLLVMGTSLQVQPFASLISKAPLSTPRLLINKEKAGQSDPFLGMIMGLGGGMDFDSKKAYRDVAWLGECDQGCLALAELLGWKKELEDLVRREHASIDAQSGAGVPNPSTSASPKKSPPPAKDEARTTEREKPQ
notes: as for B1

Experiments:
Type in all cases: biochemical, human
[1] = substrate: CCCCCCCCCCCCCC(=O)NCCCC[C@@H]1NC(=O)[C@H](CCCNC(=N)N)NC(=O)[C@@H](NC(C)=O)CCCCNC(=O)CCCCCCC(=O)NCCCC[C@@H](C(=O)N[C@H](C(N)=O)[C@@H](C)O)NC1=O; assay: HPLC-based sirtuin deacylation activity assay, SIRT3; conditions: other: substrate activity with SIRT3, 50 mM Hepes pH 8.0, 3.5 mM β-NAD+, His6-SIRT3 739 nM, 37 °C, 2 min, HPLC 214 nm, Michaelis-Menten fit
Experimental: (§1) The steady-state kinetic parameters (kcat and KM) for the SIRT1/2/3 substrate activities of the purified 5–8 were determined with a HPLC-based sirtuin deacylation activity assay and are recorded in Table 2 and Table 3. As judged by kcat/KM ratios, cyclic peptides 5–8 were all found to be excellent SIRT1 substrates, actually 5, 7, and 8 are all better SIRT1 substrates than the linear hexapeptide-based SIRT1 substrate 3 (depicted in Figure 2) reported in the current literature (kcat/KM = 800 M^−1 s^−1). Cyclic peptides 5–8 were also all found to be better SIRT3 substrates than the linear hexapeptide-based SIRT3 substrate 3 reported in the current literature (kcat/KM = 990 M^−1·s^−1).
(§2) The following materials were obtained from commercial sources for the in vitro sirtuin deacylation activity assay and the pronase digestion assay, and were used as received. Sigma-Aldrich China: the active human recombinant His6-SIRT1, Trizma, Hepes, β-NAD^+, a 1.0 M solution of MgCl2 (molecular-biology grade), the pronase from Streptomyces griseus; Cayman Chemical (Ann Arbor, MI, USA): the active human recombinant GST-SIRT1, the active human recombinant His6-SIRT2, the active human recombinant His6-SIRT3; TCI Shanghai: DL-dithiothreitol (DTT); Alfa Aesar China: NaCl, KCl.
(§3) A sirtuin deacylation assay solution contained the following: 50 mM Hepes (pH 8.0), 137 mM NaCl, 2.7 mM KCl, 1 mM MgCl2, 1 mM DTT, β-NAD^+ (~5.6 × KM: 0.5 mM for the SIRT1 and SIRT2 assays, 3.5 mM for the SIRT3 assay), one test compound (5, 6, 7, or 8) with varied concentrations including 0, and a sirtuin (His6-SIRT1 or GST-SIRT1, 243 nM; His6-SIRT2, 297 nM; or His6-SIRT3, 739 nM). An enzymatic reaction was initiated by the addition of a sirtuin at 37 °C and was incubated at 37 °C for 5 min (for the SIRT1 assay) or 2 min (for the SIRT2 and SIRT3 assays) until quenched with the following stop solution: 100 mM HCl and 0.16 M acetic acid. The quenched assay solutions were directly injected into a C18 column (0.46 × 25 cm, 5 μm), and the column was eluted with a gradient of ddH2O containing 0.05% (v/v) TFA and acetonitrile containing 0.05% (v/v) TFA at 1 mL/min and was monitored at 214 nm. Turnover of the limiting substrate was kept at <10%. Stock solutions of the test compounds were all prepared in ddH2O. The integrated product and substrate HPLC peak areas were then used to determine the initial velocities for the sirtuin-catalyzed deacylation reaction at different concentrations of a test compound (5, 6, 7, or 8). The initial velocity-concentration data were analyzed with KaleidaGraph® (Synergy Software, Reading, PA, USA) and the data were fitted to the Michaelis-Menten equation to obtain the kinetic parameters kcat and KM, as recorded in Table 2 and Table 3.

[2] = substrate: CSCC[C@H](NC(=O)[C@@H]1CCCCNC(=O)CCC(=O)NCCCC[C@H](NC(C)=O)C(=O)N[C@@H](CCCCN)C(=O)N[C@@H](CCCCNC(C)=O)C(=O)N1)C(N)=O; assay: as above; conditions: other: substrate activity with SIRT3, 50 mM Hepes pH 8.0, 3.5 mM β-NAD+, His6-SIRT3 739 nM, 37 °C, 2 min, HPLC 214 nm, Michaelis-Menten fit
Experimental: as §1, §2, §3

[3] = substrate: CSCC[C@H](NC(=O)[C@@H]1CCCCNC(=O)CNC(=O)CCCCCCC(=O)NCC(=O)NCCCC[C@H](NC(C)=O)C(=O)N[C@@H](CCCCN)C(=O)N[C@@H](CCCCNC(C)=O)C(=O)N1)C(N)=O; assay: as above; conditions: other: substrate activity with SIRT3, 50 mM Hepes pH 8.0, 3.5 mM β-NAD+, His6-SIRT3 739 nM, 37 °C, 2 min, HPLC 214 nm, Michaelis-Menten fit
Experimental: as §1, §2, §3

[4] = substrate: CCCCCCCCCCCCCC(=O)NCCCC[C@@H]1NC(=O)[C@H](CCCNC(=N)N)NC(=O)[C@@H](NC(C)=O)CCCCNC(=O)CCCCCCC(=O)NCCCC[C@@H](C(=O)N[C@H](C(N)=O)[C@@H](C)O)NC1=O; assay: HPLC-based sirtuin deacylation activity assay, SIRT2; conditions: other: substrate activity with SIRT2, 50 mM Hepes pH 8.0, 0.5 mM β-NAD+, His6-SIRT2 297 nM, 37 °C, 2 min, HPLC 214 nm, Michaelis-Menten fit
Experimental: as §1, §2, §3

[5] = substrate: CSCC[C@H](NC(=O)[C@@H]1CCCCNC(=O)CCC(=O)NCCCC[C@H](NC(C)=O)C(=O)N[C@@H](CCCCN)C(=O)N[C@@H](CCCCNC(C)=O)C(=O)N1)C(N)=O; assay: as above; conditions: other: substrate activity with SIRT2, 50 mM Hepes pH 8.0, 0.5 mM β-NAD+, His6-SIRT2 297 nM, 37 °C, 2 min, HPLC 214 nm, Michaelis-Menten fit
Experimental: as §1, §2, §3

[6] = substrate: CSCC[C@H](NC(=O)[C@@H]1CCCCNC(=O)CNC(=O)CCCCCCC(=O)NCC(=O)NCCCC[C@H](NC(C)=O)C(=O)N[C@@H](CCCCN)C(=O)N[C@@H](CCCCNC(C)=O)C(=O)N1)C(N)=O; assay: as above; conditions: other: substrate activity with SIRT2, 50 mM Hepes pH 8.0, 0.5 mM β-NAD+, His6-SIRT2 297 nM, 37 °C, 2 min, HPLC 214 nm, Michaelis-Menten fit
Experimental: as §1, §2, §3

Protein	Km [1] [µM]	kcat [1]	kcat/Km [1]	Km [2] [µM]	kcat [2]	kcat/Km [2]	Km [3] [µM]	kcat [3]	kcat/Km [3]	Km [4] [µM]	kcat [4]	kcat/Km [4]	Km [5] [µM]	kcat [5]	kcat/Km [5]	Km [6] [µM]	kcat [6]	kcat/Km [6]
B1	4.2 ± 0.38	60.0 ± 2.8 10^−3, s^−1	(14.3 ± 0.66) × 10^3 M^−1·s^−1	34.9 ± 4.04	155.3 ± 16.6 10^−3, s^−1	(4.51 ± 1.0) × 10^3 M^−1·s^−1	4.5 ± 0.9	15.8 ± 1.4 10^−3, s^−1	(3.6 ± 0.4) × 10^3 M^−1·s^−1									
B2										37.6 ± 14.4	90.9 ± 2.62 10^−3, s^−1	(2.6 ± 0.93) × 10^3 M^−1·s^−1	49.7 ± 7.78	138.9 ± 26.7 10^−3, s^−1	(2.79 ± 0.1) × 10^3 M^−1·s^−1	11.6 ± 2.2	36.0 ± 4.9 10^−3, s^−1	(3.2 ± 1.0) × 10^3 M^−1·s^−1
